The values below come from patent US6461867.

In the assay the target is VSV-7 peptide (Vesicular stomatitis virus).

B1: soluble H-2K^b (K^bsol), empty heterodimer of truncated K^b heavy chain and murine β-2 microglobulin (other)
alpha: GPHSLRYFVTAVSRPGLGEPRYMEVGYVDDTEFVRFDSDAENPRYEPRARWMEQEGPEYWERETQKAKGNEQSFRVDLRTLLGYYNQSKGGSHTIQVISGCEVGSDGRLLRGYQQYAYDGCDYIALNEDLKTWTAADMAALITKHKWEQAGEAERLRAYLEGTCVEWLRRYLKNGNATLLRTDSPKAHVTHHSRPEDKVTLRCWALGFYPADITLTWQLNGEELIQDMELVETRPAGDGTFQKWASVVVPLGKEQYYTCHVYHQGLPEPLTLRW
beta: IQKTPQIQVYSRHPPENGKPNILNCYVTQFHPPHIEIQMLKNGKKIPKVEMSDMSFSKDWSFYILAHTEFTPTETDTYACRVKHASMAEPKTVYWDRDM
For the molecule B1, the Kd is 53 nM.
